Reference: paper PMC8640019

Biological target: SH2B (human) (UniProt Q9NRF2)
Assay: ITC

Ka: 1.45e+06 M⁻¹
Kd: 690 nM
stoichiometry N: 0.79
Substance: JAK2 pY813 peptide
